Tests used:
[1] = cited from earlier work
[2] = Hydrophobic ion pairing with ethyl lauroyl arginate: precipitation efficiency; format: physicochemical; details: 1:1 charge ratio (peptide:surfactant), peptide in 0.001 M NaOH, 2 h, 400 rpm, ambient temperature; mean ± SD
Description: Hydrophobic ion pairs were formed in order to increase lipophilicity of semaglutide according to previous studies. The peptide was dissolved in 0.001 M NaOH in a concentration of 10 mg/ml to obtain a negative net charge. Ethyl lauroyl arginate, as a cationic counter ion was dissolved in demineralized water. Equal amounts (500 µL: 500 µL) of peptide and surfactant solution were combined corresponding to a charge ratio of 1:1 (peptide:surfactant). Samples were agitated at 400 rpm for 2 h on a thermomixer (Eppendorf, Austria) at ambient temperature. Precipitates were separated from the solution by centrifugation at 12,045 RCF for 10 min (Minispin, Eppendorf, Austria). Precipitation efficiency was determined according to the following equation:1 [drawing 1]

[3] = Solubility of (poly)peptides in lipid phases via reverse micelles (dry addition) or HIP; format: physicochemical
Description: (Poly)peptide loaded RM were prepared utilizing 200 mM of surfactants dissolved within the oily phase (GML/C8 (1:4; m/m), GMCC/C8 (1:4; m/m) and GMCC/GML (1:4; m/m)) in order to guarantee formation of reverse micelles. Loaded reverse micelles were prepared by the addition of semaglutide to surfactant-oil solutions (200 mM ELA or 200 mM DOC) resulting in a final concentration of 50 mg/mL. The mixtures were vortexed and treated with ultrasound for 30 min before incubation at 1200 rpm at room temperature (RT). Formation of reverse micelles by dry addition method, describing the direct addition of the API in powdered form to lipophilic solvents without use of any additional solvents, was investigated for semaglutide and three further (poly)peptides for comparison. In that regard, semaglutide with a molecular weight of 4.1 kDa was compared to colistin representing the smallest investigated peptide (1.1 kDa). In addition, two larger polypeptides, lysozyme (LYS, 14.4 kDa) and bovine serum albumin (BSA, 66.4 kDa) were investigated. At predetermined time points the dissolved (poly)peptide in supernatant was quantified by HPLC after centrifugation at 12,045 RCF for 10 min.

log D lipid phase/water = format: physicochemical
Description: Retention of drug within lipid phase after emulsification is crucial for the active ingredient to reach the absorption membrane in intact form. Thus, high log Dlipid phase/water values are substantial for lipophilic complexes of semaglutide. In brief, 200 µL of peptide loaded RM or HIP complexes corresponding to 2 mg of semaglutide in the lipid phases GML/C8 (1:4; m/m), […] were underlaid with 200 µL of demineralized water and incubated at 300 rpm on a thermomixer for 24 h. In the following samples were centrifuged at 12,045 RCF for 10 min and 100 µL aliquots from both phases were withdrawn and the amount of peptide was quantified by HPLC. The distribution coefficient was calculated according to Eq. 3:3 [drawing 5]
where [drawing 6] corresponds to peptide concentration in the lipophilic phase after incubation and [drawing 7] to peptide concentration in the water phase after incubation. Log Dlipid phase/water values for reference (poly)peptides were determined in the same manner.

Caco-2 monolayer = test: Caco-2 permeation study; format: in vitro ADME, human; details: Caco-2 on 24-well Transwell, 21 days, apical to basolateral, HBS pH 6.8, SEDDS 0.05% (v/v), 6 h; ELISA; means n = 4
Description: The ability of native semaglutide as well as semaglutide-RM loaded SEDDS and SEDDS containing HIP to permeate the intestinal epithelium was investigated using Caco-2 cells. Caco-2 cell line was seeded on a 24-well Transwell filters plate at a cell density of 1.25 × 10^5 cells/cm^2. Cells were cultivated for 21 days replacing the media every second day. On the day of the experiment, cells were washed twice using sterile HBS buffer pH 6.8. To start the experiment after the equilibration period, the buffer was removed and replaced with 100 µL of either native semaglutide solution in sterile HBS buffer pH 6.8 or semaglutide-RMs loaded SEDDS diluted to a concentration of 0.05% (v/v) with sterile HBS buffer pH 6.8. Sterile HBS buffer (500 µL) was added to basolateral side. At predetermined time points, 100 µL were withdrawn from basolateral chambers and replaced with prewarmed HBS. The amount of semaglutide in the basolateral chamber was measured through ELISA (KRIBIOLISA™ Semaglutide ELISA, Krishgen BioSystems, US). Transepithelial electric resistance (TEER) in a range of 1200–3300 ohm/cm^2 were measured ensuring integrity of cell monolayers (Evom2, World Precision Instrument Inc., USA).

Q: With “lysozyme [14.4 kDa reference polypeptide]” as the molecule, how does the “Isoelectric point (IEP)” value [1] read?
A: 11.0

Q: And the “Precipitation efficiency of HIP with ethyl lauroyl arginate” value [2]?
A: 0.0 ± 1.7%

Q: What about the “Solubility in RM, times lower compared to semaglutide” value ([3]; reverse micelles, dry addition, pronounced increase only after 72 h) of the same molecule?
A: about 10 times

Q: What about the “Improvement in lipophilicity in RM compared to the native peptide” value (log D lipid phase/water; log D lipid phase/water, RM) of the same molecule?
A: up to 600 fold

Q: For `CC[C@H](C)[C@H](NC(=O)[C@H](Cc1ccccc1)NC(=O)[C@H](CCC(=O)O)NC(=O)[C@H](CCCCNC(=O)COCCOCCNC(=O)COCCOCCNC(=O)CC[C@H](NC(=O)CCCCCCCCCCCCCCCCC(=O)O)C(=O)O)NC(=O)[C@H](C)NC(=O)[C@H](C)NC(=O)[C@H](CCC(N)=O)NC(=O)CNC(=O)[C@H](CCC(=O)O)NC(=O)[C@H](CC(C)C)NC(=O)[C@H](Cc1ccc(O)cc1)NC(=O)[C@H](CO)NC(=O)[C@H](CO)NC(=O)[C@@H](NC(=O)[C@H](CC(=O)O)NC(=O)[C@H](CO)NC(=O)[C@@H](NC(=O)[C@H](Cc1ccccc1)NC(=O)[C@@H](NC(=O)CNC(=O)[C@H](CCC(=O)O)NC(=O)C(C)(C)NC(=O)[C@@H](N)Cc1cnc[nH]1)[C@@H](C)O)[C@@H](C)O)C(C)C)C(=O)N[C@@H](C)C(=O)N[C@@H](Cc1c[nH]c2ccccc12)C(=O)N[C@@H](CC(C)C)C(=O)N[C@H](C(=O)N[C@@H](CCCNC(=N)N)C(=O)NCC(=O)N[C@@H](CCCNC(=N)N)C(=O)NCC(=O)O)C(C)C` [semaglutide], which “Maximum solubility within reverse micelles” value ([3]; after 48 h to 72 h, dry addition, 200 mM ELA or DOC, 50 mg/mL added, RT, HPLC, means n ≥ 3) is on record?
A: ~100%

Q: And the “Solubility in RM in comparison to HIP” value ([3]; best performing lipid phase glycerol monocaprylocaprate:caprylic acid 1:4 (m/m))?
A: at least 2 fold

Q: And the “Apparent permeability coefficient (Papp)” value (Caco-2 monolayer)?
A: significantly lower Papp value

Q: Which results are given for “bovine serum albumin [66.4 kDa reference polypeptide]”?
A: Isoelectric point (IEP) [1]: 5.0; Precipitation efficiency of HIP with ethyl lauroyl arginate [2]: 39.1 ± 2.2%; Solubility within reverse micelles ([3]; even after prolonged incubation time, dry addition, 200 mM surfactant, RT, HPLC): below 1 mg/mL

Q: What does the source list for colistin [1.1 kDa reference peptide]?
A: Isoelectric point (IEP) [1]: 5.0; Change in lipophilicity (log D lipid phase/water) in RM (log D lipid phase/water; RM formed with docusate): enhanced lipophilicity; Change in lipophilicity (log D lipid phase/water) in RM (log D lipid phase/water; RM formed with ethyl lauroyl arginate): almost no increase in lipophilicity

Source: paper PMC12037675, “Design of self-emulsifying oral delivery systems for semaglutide: reverse micelles versus hydrophobic ion pairs” (Drug Delivery and Translational Research, 2024)
